# Reference: patent US6548743B1, “Transgenic plants expressing a dual-specificity MAPK phosphatase and uses thereof” (The General Hospital Corporation, priority 1998, dated 2003)
# B1: MKP-1: dual-specificity MAPK phosphatase; fragment of mouse MKP-1 (amino acids 1-314) expressed from a transgene under the 35S CaMV promoter (protein, UniProt P28563 1-314, looked up, fragment)
# chain: MVMEVGILDAGGLRALLREGAAQCLLLDCRSFFAFNAGHIAGSVNVRFSTIVRRRAKGAMGLEHIVPNAELRGRLLAGAYHAVVLLDERSASLDGAKRDGTLALAAGALCREARSTQVFFLQGGYEAFSASCPELCSKQSTPTGLSLPLSTSVPDSAESGCSSCSTPLYDQGGPVEILSFLYLGSAYHASRKDMLDALGITALINVSANCPNHFEGHYQYKSIPVEDNHKADISSWFNEAIDFIDSIKDAGGRVFVHCQAGISRSATICLAYLMRTNRVKLDEAFEFVKQRRSIISPNFSFMGQLLQFESQVLA
# Tests used:
# Arabidopsis plants = test: Phenotype of transgenic Arabidopsis plants expressing the transgene (35S CaMV promoter); format: in vivo
# Text: (§1) Next, we examined the phenotypic modifications of transgenic plants expressing MKP-1 under the control of the 35S CaMV promoter. For these experiments, we introduced the MKP-1 construct into tobacco cultivar SR1 and Arabidopsis plants according to standard Agrobacterium-mediated gene transfer methods. Initiation of flowering in the day-neutral tobacco cultivar SR1 is mainly dependent on the number of leaves found on the plants. These tobacco plants, in general, remain in the vegetative state until approximately twenty leaves have developed. […] Some transformants even initiated flowers after only a few small leaves had developed (FIG. 4). Despite early flowering, these plants were fertile. […] Similar results were obtained when MKP-1 was expressed in Arabidopsis plants.
# tobacco cells = test: Auxin effect on division and differentiation of transfected tobacco cells; format: cell-based
# Description: To examine the effects of auxin on cell division and differentiation of cells expressing MKP-1 SEQ ID NO.:10; tobacco cells transfected with the MKP-1 transgene expressed under the control of the 35S CaMV promoter were cultured on a medium containing 0.1 μM or 1 μM NAA. […] Since prevention of MAPK activation by MKP-1 can render plant cells less sensitive to auxin, activation of some MAPK pathways may be crucial in auxin stimulated plant cell proliferation.
# [1] = tested on: NPK1-dependent activation of a MAPK and repression of the GH3 promoter; test: Transient expression in maize protoplasts: reversal of NPK1 effects; format: cell-based; details: transfected maize protoplasts, 35S CaMV promoter
# Text: A phosphatase domain containing a fragment of the mouse MKP-1 (amino acids 1-314 (SEQ ID NO.: 11); Sun et al., Cell 75: 487-493, 1993) was cloned into the plant expression vector pART7. This expression plasmid was then used for transient expression of MKP-1 in maize protoplasts.
# tobacco cultivar SR1 = test: Phenotype of transgenic tobacco SR1 plants expressing the transgene (35S CaMV promoter); format: in vivo
# Text: as §1
molecule,measurement,setting,value
B1,fertility of reproductive organs,Arabidopsis plants; in vivo,fertile
same,inflorescence initiation,Arabidopsis plants; progenies of several Arabidopsis lines,initiate the inflorescence stem without producing any rosette leaves
same,cell division under low auxin,tobacco cells; 0.1 μM NAA,failed to divide
same,cell phenotype under high auxin,tobacco cells; 1 μM NAA,remained green and formed tight calli with differentiated shoot primordia
same,level of auxin required to initiate cell division,"tobacco cells; constant concentration of cytokinin, compared with cells transfected with vector alone",1 μM NAA
same,effect on NPK1-dependent activation of a MAPK,[1],complete elimination
same,effect on repression of the auxin-inducibility of the GH3 promoter by NPK1,[1],complete elimination
same,number of leaves before flowering compared to wild type,"tobacco cultivar SR1; MKP-1 transformed SR1 tobacco, FIG. 2",about half
same,fertility,tobacco cultivar SR1; early flowering transformants,fertile
same,reduction in the vegetative life span of the plant,tobacco cultivar SR1; in vivo,~50%
same,initiation of flowering,tobacco cultivar SR1; primary transgenic SR1 lines vs control plants,initiated flowering earlier than control plants
same,flower and seed production,tobacco cultivar SR1; transgenic vs wild-type plants,more flowers and seeds than the wild-type plants
